From patent US20140112936A1

Assays:
[1] = biological target: gp41-inter (HIV-1 clade A isolate 92UG037.8); assay: SPR, gp41-inter immobilized on CM5 chip, Fab as analyte, 1:1 Langmuir
[2] = biological target: GCN4-gp41-inter (HIV-1 clade A isolate 92UG037.8 (gp41 part)); assay: SPR, GCN4-gp41-inter immobilized on CM5 chip, Fab as analyte, 1:1 Langmuir
[3] = biological target: GCN4-gp41-inter (HIV-1 clade A isolate 92UG037.8 (gp41 part)); assay: SPR, GCN4-gp41-inter immobilized on CM5 chip, Fab as analyte, 1:1 Langmuir (single curve)
[4] = biological target: gp41-inter (HIV-1 clade A isolate 92UG037.8); assay: SPR, gp41-inter immobilized on CM5 chip, Fab as analyte, 1:1 Langmuir (single curve)

Row | Substance | Kd [1] | koff [1] | kon [1] | Kd [2] | koff [2] | kon [2] | Kd [3] | koff [3] | kon [3] | Kd [4] | koff [4] | kon [4]
1 | Z13e1 Fab | 97.7 nM | 0.00548 s⁻¹ | 56000 M⁻¹ s⁻¹ | 34 nM | 0.00289 s⁻¹ | 85000 M⁻¹ s⁻¹ | – | – | – | – | – | –
2 | 4E10 Fab | – | – | – | – | – | – | 4.86 nM | 0.000237 s⁻¹ | 48800 M⁻¹ s⁻¹ | 8.85 nM | 0.000235 s⁻¹ | 26600 M⁻¹ s⁻¹
3 | 2F5 Fab | 0.415 nM | 0.00019 s⁻¹ | 457000 M⁻¹ s⁻¹ | 0.317 nM | 0.000158 s⁻¹ | 498000 M⁻¹ s⁻¹ | – | – | – | – | – | –
